59 variants from the MegaScale stability set (Tsuboyama et al. 2023) can be followed below.

First the molecules themselves.
B1: EEHEE_rd4_0469 (parent)
chain: ITIHVNGVTYHFDNPEEAEKFAQKMAKTYQLKMEIHNGEFHME

Variants of B1 are the subject of this data set. Nature of the data set: folding stability dG (cDNA display proteolysis); higher = more stable. The conditions noted are these: PBS, room temperature.
On to ITIHVNGVTYHFDNPEEAEKFAQKMAKTYQLKMEIHAGEFHME [N37A], for which the “folding stability dG” value stood at 0.861 kcal/mol.

For the variant ITIHVNGVTYHFDNPEEAEKFAQKMAKTYQLKMEIHYGEFHME [N37Y], the “folding stability dG” value was 1.14 kcal/mol.

ITIHVNGVTYHFDNPEEAEKFAQKMAKTYQLKMEIHRGEFHME [N37R]: the “folding stability dG” value turned out to be 0.716 kcal/mol.

As for ITIHVNGVTYHFDNPEEAEKFAQKMAKTYQLKMEIHKGEFHME [N37K], the “folding stability dG” value was determined as 0.81 kcal/mol.

Take ITIHVNGVTYHFDNPEEAEKFAQKMAKTYQLKMEIHEGEFHME [N37E]: the “folding stability dG” value amounted to 0.831 kcal/mol.

As to ITIHVNGVTYHFDNPEEAEKFAQKMAKTYQLKMEIHVGEFHME [N37V], the “folding stability dG” value came out at 0.9 kcal/mol.

For ITIHVNGVTYHFDNPEEAEKFAQKMAKTYQLKMEIHDGEFHME [N37D], the “folding stability dG” value turned out to be 1.02 kcal/mol.

As for ITIHVNGVTYHFDNPEEAEKFAQKMAKTYQLKMEIHSGEFHME [N37S], the “folding stability dG” value came to 0.831 kcal/mol.

With ITIHVNGVTYHFDNPEEAEKFAQKMAKTYQLKMEIHLGEFHME [N37L], the “folding stability dG” value was 1.09 kcal/mol.

Consider ITIHVNGVTYHFDNPEEAEKFAQKMAKTYQLKMEIHFGEFHME [N37F], for which the “folding stability dG” value came out at 1.19 kcal/mol.

With ITIHVNGVTYHFDNPEEAEKFAQKMAKTYQLKMEIHPGEFHME [N37P], the “folding stability dG” value is 0.635 kcal/mol.

Consider ITIHVNGVTYHFDNPEEAEKFAQKMAKTYQLKMEIHHGEFHME [N37H], for which the “folding stability dG” value was determined as 1.11 kcal/mol.

Consider ITIHVNGVTYHFDNPEEAEKFAQKMAKTYQLKMEIHGGEFHME [N37G], for which the “folding stability dG” value was 1.02 kcal/mol.

Regarding ITIHVNGVTYHFDNPEEAEKFAQKMAKTYQLKMEIHQGEFHME [N37Q], the “folding stability dG” value stood at 0.88 kcal/mol.

In the case of ITIHVNGVTYHFDNPEEAEKFAQKMAKTYQLKMEIHIGEFHME [N37I], the “folding stability dG” value came to 1.1 kcal/mol.

For the variant ITIHVNGVTYHFDNPEEAEKFAQKMAKTYQLKMEIHWGEFHME [N37W], the “folding stability dG” value was found to be 1.17 kcal/mol.

On to ITIHVNGVTYHFDNPEEAEKFAQKMAKTYQLKMEIHMGEFHME [N37M], for which the “folding stability dG” value was found to be 1.03 kcal/mol.

Consider ITIHVNGVTYHFDNPEEAEKFAQKMAKTYQLKMEIHTGEFHME [N37T], for which the “folding stability dG” value turned out to be 0.767 kcal/mol.

ITIHVNGVTYHFDNPEEAEKFAQKMAKTYQLKMEIHNTEFHME [G38T]: the “folding stability dG” value is 0.717 kcal/mol.

Regarding ITIHVNGVTYHFDNPEEAEKFAQKMAKTYQLKMEIHNREFHME [G38R], the “folding stability dG” value turned out to be 0.609 kcal/mol.

Regarding ITIHVNGVTYHFDNPEEAEKFAQKMAKTYQLKMEIHNDEFHME [G38D], the “folding stability dG” value is 0.717 kcal/mol.

Turning to ITIHVNGVTYHFDNPEEAEKFAQKMAKTYQLKMEIHNMEFHME [G38M], the “folding stability dG” value came out at 0.798 kcal/mol.

Turning to ITIHVNGVTYHFDNPEEAEKFAQKMAKTYQLKMEIHNIEFHME [G38I], the “folding stability dG” value was 0.832 kcal/mol.

Take ITIHVNGVTYHFDNPEEAEKFAQKMAKTYQLKMEIHNYEFHME [G38Y]: the “folding stability dG” value was 0.871 kcal/mol.

In the case of ITIHVNGVTYHFDNPEEAEKFAQKMAKTYQLKMEIHNCEFHME [G38C], the “folding stability dG” value came out at 2.21 kcal/mol.

As for ITIHVNGVTYHFDNPEEAEKFAQKMAKTYQLKMEIHNAEFHME [G38A], the “folding stability dG” value stood at 0.774 kcal/mol.

With ITIHVNGVTYHFDNPEEAEKFAQKMAKTYQLKMEIHNVEFHME [G38V], the “folding stability dG” value came to 0.627 kcal/mol.

On to ITIHVNGVTYHFDNPEEAEKFAQKMAKTYQLKMEIHNFEFHME [G38F], for which the “folding stability dG” value came to 0.963 kcal/mol.

Take ITIHVNGVTYHFDNPEEAEKFAQKMAKTYQLKMEIHNHEFHME [G38H]: the “folding stability dG” value worked out at 0.885 kcal/mol.

Regarding ITIHVNGVTYHFDNPEEAEKFAQKMAKTYQLKMEIHNLEFHME [G38L], the “folding stability dG” value came out at 0.917 kcal/mol.

With ITIHVNGVTYHFDNPEEAEKFAQKMAKTYQLKMEIHNKEFHME [G38K], the “folding stability dG” value came out at 0.72 kcal/mol.

For the variant ITIHVNGVTYHFDNPEEAEKFAQKMAKTYQLKMEIHNSEFHME [G38S], the “folding stability dG” value amounted to 0.699 kcal/mol.

Turning to ITIHVNGVTYHFDNPEEAEKFAQKMAKTYQLKMEIHNNEFHME [G38N], the “folding stability dG” value worked out at 0.855 kcal/mol.

Consider ITIHVNGVTYHFDNPEEAEKFAQKMAKTYQLKMEIHNQEFHME [G38Q], for which the “folding stability dG” value came out at 0.664 kcal/mol.

For the variant ITIHVNGVTYHFDNPEEAEKFAQKMAKTYQLKMEIHNPEFHME [G38P], the “folding stability dG” value was found to be 0.616 kcal/mol.

Take ITIHVNGVTYHFDNPEEAEKFAQKMAKTYQLKMEIHNEEFHME [G38E]: the “folding stability dG” value worked out at 0.77 kcal/mol.

As for ITIHVNGVTYHFDNPEEAEKFAQKMAKTYQLKMEIHNWEFHME [G38W], the “folding stability dG” value was 0.914 kcal/mol.

As to ITIHVNGVTYHFDNPEEAEKFAQKMAKTYQLKMEIQNGEFHME [H36Q], the “folding stability dG” value stood at 0.93 kcal/mol.

For the variant ITIHVNGVTYHFDNPEEAEKFAQKMAKTYQLKMEIKNGEFHME [H36K], the “folding stability dG” value worked out at 1.28 kcal/mol.

Take ITIHVNGVTYHFDNPEEAEKFAQKMAKTYQLKMEIINGEFHME [H36I]: the “folding stability dG” value is 1.66 kcal/mol.

In the case of ITIHVNGVTYHFDNPEEAEKFAQKMAKTYQLKMEIFNGEFHME [H36F], the “folding stability dG” value came out at 1.19 kcal/mol.

Turning to ITIHVNGVTYHFDNPEEAEKFAQKMAKTYQLKMEIYNGEFHME [H36Y], the “folding stability dG” value turned out to be 1.26 kcal/mol.

As to ITIHVNGVTYHFDNPEEAEKFAQKMAKTYQLKMEIVNGEFHME [H36V], the “folding stability dG” value came out at 1.35 kcal/mol.

For ITIHVNGVTYHFDNPEEAEKFAQKMAKTYQLKMEIRNGEFHME [H36R], the “folding stability dG” value was 1.49 kcal/mol.

Turning to ITIHVNGVTYHFDNPEEAEKFAQKMAKTYQLKMEIMNGEFHME [H36M], the “folding stability dG” value was 0.945 kcal/mol.

For ITIHVNGVTYHFDNPEEAEKFAQKMAKTYQLKMEIPNGEFHME [H36P], the “folding stability dG” value turned out to be 0.499 kcal/mol.

Consider ITIHVNGVTYHFDNPEEAEKFAQKMAKTYQLKMEIWNGEFHME [H36W], for which the “folding stability dG” value was found to be 1.24 kcal/mol.

As to ITIHVNGVTYHFDNPEEAEKFAQKMAKTYQLKMEISNGEFHME [H36S], the “folding stability dG” value was 0.832 kcal/mol.

For the variant ITIHVNGVTYHFDNPEEAEKFAQKMAKTYQLKMEILNGEFHME [H36L], the “folding stability dG” value worked out at 1.2 kcal/mol.

With ITIHVNGVTYHFDNPEEAEKFAQKMAKTYQLKMEINNGEFHME [H36N], the “folding stability dG” value was 0.903 kcal/mol.

As for ITIHVNGVTYHFDNPEEAEKFAQKMAKTYQLKMEITNGEFHME [H36T], the “folding stability dG” value turned out to be 0.926 kcal/mol.

For ITIHVNGVTYHFDNPEEAEKFAQKMAKTYQLKMEIGNGEFHME [H36G], the “folding stability dG” value was 0.601 kcal/mol.

As for ITIHVNGVTYHFDNPEEAEKFAQKMAKTYQLKMEIENGEFHME [H36E], the “folding stability dG” value turned out to be 0.92 kcal/mol.

As to ITIHVNGVTYHFDNPEEAEKFAQKMAKTYQLKMEIHNGFFHME [E39F], the “folding stability dG” value stood at 0.886 kcal/mol.

Consider ITIHVNGVTYHFDNPEEAEKFAQKMAKTYQLKMEIHNGAFHME [E39A], for which the “folding stability dG” value stood at 1.02 kcal/mol.

As to ITIHVNGVTYHFDNPEEAEKFAQKMAKTYQLKMEIHNGDFHME [E39D], the “folding stability dG” value is 0.969 kcal/mol.

For the variant ITIHVNGVTYHFDNPEEAEKFAQKMAKTYQLKMEIHNGCFHME [E39C], the “folding stability dG” value stood at 1.69 kcal/mol.

With ITIHVNGVTYHFDNPEEAEKFAQKMAKTYQLKMEIHNGGFHME [E39G], the “folding stability dG” value is 0.755 kcal/mol.

Consider ITIHVNGVTYHFDNPEEAEKFAQKMAKTYQLKMEIHNGHFHME [E39H], for which the “folding stability dG” value was 1.16 kcal/mol.
